Experimental findings from paper PMC12014896 (2025) are described below.

Numbering of substitutions follows the chain as printed.

For the experiment, the target named is SARS-CoV-2 spike RBD (Wuhan-Hu-1) (Severe acute respiratory syndrome …, UniProt P0DTC2). The experiment is described as follows: SPR. For orientation: SPR reads the build-up and loss of mass on a sensor chip optically.

B1: COVIC-66 (antibody)
chain: QVQLQESGGGLVQAGGSLRLSCAASGRTFSEYAMGWFRQAPGKEREFVATISWSGGSTYYTDSVKGRFTISRDNAKNTVYLQMNSLKPDDTAVYYCAAAGLGTVVSEWDYDYDYWGQGTQVTVSSGGSGGSQVQLQESGGGLVQAGGSLRLSCVASGSIFSINAMDWYRQAPGKQRELVAGITSGGSTNYGDFVKGRFTISRDNAKNTVYLQMDSLKPEDTAVYYCAAEVGGWGPPRPDYWGHGTQVTVSSGGGGSGGGGSEPKSCDKTHTCPPCPAPELLGGKKKPLDGEYFTLQIRGRERFEMFRELNEALELKDAQAGKEPG
Regarding B1, the Kd (usually the concentration at which binding is half-saturated) was found to be 140 nM.

B2: COVIC-266 (antibody, V domains shown)
VH: EVQLVESGGGLVQPGGSLRLSCKASGISVAPHAVTWVRQAPGKGLEWIGVIASNADTYYASWAKGRFTISRDNSKNTLYLQMNSLRAEDTAVYYCARHPGSAGYGYTYYYAMDPWGQGTLVTVSS
VL: DIQMTQSPSSLSASVGDRVTITCKASEDIRYGLNWYQQKPGKAPKLLIYGANTLEAGVPSRFSGSGSGTDFTLTISSLQPEDFATYYCQQGYSTPLTFGGGTKVEIK
Consider B2, for which the affinity, expressed as Kd, was 2.41 nM.

B3: COVIC-386 (antibody, V domains shown)
VH: B2 VH with I27Y, V29F, A30R, P31H, H32Q, V34M
VL: DIQMTQSPSSLSASVGDRVTITCQASERVFYGIDWYQQKPGKAPKLLIYGASALWHGVPSRFSGSGSGTDYTLTISSLQPEDFATYYCQQGYMVPIGFGGGTKVEIK
The molecule B3 returned an equilibrium dissociation constant (Kd) of 0.177 nM.

B4: COVIC-30 (antibody, V domains shown)
VH: EVQLVESGGGLVQPGGSLRLSCAASGFTVSSNYMSWVRQAPGKGLEWVSVIYSGGSTYYADSVKGRFTISRDNSKNTLYLQMNSLRAEDTAVYYCARVEWAAAGTFYWGQGTLVTVSS
VL: QSALTQEPSLTVSPGGTVTLTCGSSTGAVTSGHYPYWFQQKPGQAPRTLIYDTSNKRSWTPARFSGSLLGGKAALTLSGAQPEDEAEYYCLLSYSGVWVFGGGTKLTVL
B4 gave a Kd of 4.1 nM.

B5: COVIC-307 (antibody, V domains shown)
VH: QVQLVQSGAEVKKPGSSVKVSCKASGGTFGISWVRQAPGQGLEWMGRIIPILGTANHAQKFQGRVTITADKSTGTVYMELSSLRSEDTAVYYCARDGDSGSYYETLGFDYWGQGTLVTVSS
VL: QSALTQPPSASGSPGQSVTISCTGTSSDVGGYNYVSWYQQHPGKAPKLMIYEVNKRPSGVPDRFSGSKSGNTASLTVSGLQAEDEADYYCSSYAGSNNLVFGGGTKLTVL
B5 came in with an equilibrium dissociation constant (Kd) of 2.36 nM.

B6: COVIC-21 (antibody, V domains shown)
VH: EVQLLESGGGLVQPGGSLRLSCAASGFTFSDFAMAWVRQAPGKGLEWVSAISGSGDITYYADSVKGRFTISRDNSKNTLYLQMNSLRAEDTAVYYCAREADGLHSPWHFDLWGQGTLVTVSS
B6: the Kd amounted to 0.208 nM.

B7: COVIC-54 (antibody, V domains shown)
VH: QVQLQESGGGLVQAGGSLRLSCAASGRTFSEYAMGWFRQAPGKEREFVATISWSGGSTYYTDSVKGRFTISRDNAKNTVYLQMNSLKPDDTAVYYCAAAGLGTVVSEWDYDYDYWGQGTQVTVSS
As to B7, binding was characterised by a dissociation constant (Kd) of 244 nM.

B8: COVIC-321 (antibody)
chain 1: not shown
chain 2: EVQLLESGGGLVQPGGSLRLSCAASGRTFSEYAMGWFRQAPGKGLEFVSTISWSGGSTYYADSVKGRFTISRDNSKNTLYLQMNSLRAEDTAVYYCAAAGLGTVVSEWDYDYDYWGQGTLVTVSSGGGGSGGGGSKRTVAAPSVFIFPPSDEQLKSGTASVVCLLNNFYPREAKVQWKVDNALQSGNSQESVTEQDSKDSTYSLSSTLTLSKADYEKHKVYACEVTHQGLSSPVTKSFNRGEC
As to B8, the dissociation constant Kd was 30 nM.

B9: COVIC-57 (antibody)
chain 1: QVQLQESGGGLVQAGGSLRLSCAASGRTFSEYAMGWFRQAPGKEREFVATISWSGGSTYYTDSVKGRFTISRDNAKNTVYLQMNSLKPDDTAVYYCAAAGLGTVVSEWDYDYDYWGQGTQVTVSSGGGGSGGGGSASTKGPSVFPLAPSSKSTSGGTAALGCLVKDYFPEPVTVSWNSGALTSGVHTFPAVLQSSGLYSLSSVVTVPSSSLGTQTYICNVNHKPSNTKVDKKVEPKSCDKTHTKKKPLDGEYFTLQIRGRERFEMFRELNEALELKDAQAGKEPG
chain 2: QVQLQESGGGLVQAGGSLRLSCAASGRTFSEYAMGWFRQAPGKEREFVATISWSGGSTYYTDSVKGRFTISRDNAKNTVYLQMNSLKPDDTAVYYCAAAGLGTVVSEWDYDYDYWGQGTQVTVSSGGGGSGGGGSKRTVAAPSVFIFPPSDEQLKSGTASVVCLLNNFYPREAKVQWKVDNALQSGNSQESVTEQDSKDSTYSLSSTLTLSKADYEKHKVYACEVTHQGLSSPVTKSFNRGEC
Consider B9, for which the Kd was 204 nM.

B10: COVIC-58 (antibody)
chain 1: QVQLQESGGGLVQAGGSLRLSCAASGRTFSEYAMGWFRQAPGKEREFVATISWSGGSTYYTDSVKGRFTISRDNAKNTVYLQMNSLKPDDTAVYYCAAAGLGTVVSEWDYDYDYWGQGTQVTVSSGGGGSGGGGSASTKGPSVFPLAPSSKSTSGGTAALGCLVKDYFPEPVTVSWNSGALTSGVHTFPAVLQSSGLYSLSSVVTVPSSSLGTQTYICNVNHKPSNTKVDKKVEPKSCDKTHTAPELLGGPSVFLFPPKPKDTLMISRTPEVTCVVVDVSHEDPEVKFNWYVDGVEVHNAKTKPREEQYNSTYRVVSVLTVLHQDWLNGKEYKCKVSNKALPAPIEKTISKAKGQPREPQVYTLPPSRDELTKNQVSLTCLVKGFYPSDIAVEWESNGQPENNYKTTPPVLDSDGSFFLYSKLTVDKSRWQQGNVFSCSVMHEALHNHYTQKSLSLSPGKKKKPLDGEYFTLQIRGRERFEMFRELNEALELKDAQAGKEPG
chain 2: B9 chain 2
With B10, the dissociation constant (Kd) turned out to be 139 nM.

B11: COVIC-125 (antibody)
chain 1: QVQLQESGGGLVQAGGSLRLSCAASGRTFSEYAMGWFRQAPGKEREFVATISWSGGSTYYTDSVKGRFTISRDNAKNTVYLQMNSLKPDDTAVYYCAAAGLGTVVSEWDYDYDYWGQGTQVTVSSGGSGGSQVQLQESGGGLVQAGGSLRLSCAASGRTFSEYAMGWFRQAPGKEREFVATISWSGGSTYYTDSVKGRFTISRDNAKNTVYLQMNSLKPDDTAVYYCAAAGLGTVVSEWDYDYDYWGQGTQVTVSSGGGGSGGGGSASTKGPSVFPLAPSSKSTSGGTAALGCLVKDYFPEPVTVSWNSGALTSGVHTFPAVLQSSGLYSLSSVVTVPSSSLGTQTYICNVNHKPSNTKVDKKVEPKSCDKTHTKKKPLDGEYFTLQIRGRERFEMFRELNEALELKDAQAGKEPGGGGGSGGGGSQVQLQESGGGLVQAGGSLRLSCAASGRTFSEYAMGWFRQAPGKEREFVATISWSGGSTYYTDSVKGRFTISRDNAKNTVYLQMNSLKPDDTAVYYCAAAGLGTVVSEWDYDYDYWGQGTQVTVSSGGSGGSQVQLQESGGGLVQAGGSLRLSCAASGRTFSEYAMGWFRQAPGKEREFVATISWSGGSTYYTDSVKGRFTISRDNAKNTVYLQMNSLKPDDTAVYYCAAAGLGTVVSEWDYDYDYWGQGTQVTVSS
chain 2: B9 chain 2
B11 yielded a Kd of 184 nM.

B12: COVIC-368 (antibody, V domains shown)
VH: QVQLVQSGAEVKKPGASVKVSCKAYGYTFTSHYMHWVRQAPGQGLEWMGIIDSSGGGASYPQKFQGRVTLTRDTSSSTVYMELSSLRSEDTAVYYCAKAHSTNWYGWFDPWGQGTLVTVSS
VL: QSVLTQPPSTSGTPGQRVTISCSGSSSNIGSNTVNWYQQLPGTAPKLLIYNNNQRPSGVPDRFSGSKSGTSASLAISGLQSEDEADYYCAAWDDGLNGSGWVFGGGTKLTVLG
For the molecule B12, the equilibrium dissociation constant (Kd) turned out to be 0.436 nM.

B13: COVIC-95 (antibody, V domains shown)
VH: EVQLVESGGGLVQPGGSLRLSCAASGQTFNMGWFRQAPGKEREFVAAIGSGGSTSYADSVKGRFTISADNSKNTAYLQMNSLKPEDTAVYYCWRLGNDYFDYWGQGTLVTVSS
B13 had a dissociation constant Kd of 27.5 nM.

B14: COVIC-127 (antibody)
chain 1: not shown
chain 2: QVQLQESGGGLVQAGGSLRLSCAASGRTFSEYAMGWFRQAPGKEREFVATISWSGGSTYYTDSVKGRFTISRDNAKNTVYLQMNSLKPDDTAVYYCAAAGLGTVVSEWDYDYDYWGQGTQVTVSSGGSGGSQVQLQESGGGLVQAGGSLRLSCAASGRTFSEYAMGWFRQAPGKEREFVATISWSGGSTYYTDSVKGRFTISRDNAKNTVYLQMNSLKPDDTAVYYCAAAGLGTVVSEWDYDYDYWGQGTQVTVSSGGGGSGGGGSKRTVAAPSVFIFPPSDEQLKSGTASVVCLLNNFYPREAKVQWKVDNALQSGNSQESVTEQDSKDSTYSLSSTLTLSKADYEKHKVYACEVTHQGLSSPVTKSFNRGEC
On to B14, for which binding was characterised by a dissociation constant (Kd) of 106 nM.

B15: COVIC-126 (antibody)
chain 1: B11 chain 1
chain 2: B14 chain 2
Molecule B15 displayed a Kd of 139 nM.

B16: COVIC-291 (antibody, V domains shown)
VH: EVQLVESGGGLVQPGRSLRLSCAASGFTFDDYAMHWVRQAPGKGLEWVSGISWNSDSIDYADSVKGRFTISRDNAKNSLYLQMNSLRAEDTALYYCAKDRGYEILTPASFDYWGQGTLVTVSS
VL: DIQMTQSPSSLSASVGDRVTITCRASQSISSYLNWFQHKPGKAPKLLIYGASSLQSGVPSRFSGSGSGTDFTLTISSLQPEDFATYYCQQSYSTPPYTFGQGTKLEIK
B16 displayed a Kd of 6.83 nM.
